Source: publication PMC8564726 (2021)

Tests used:
[1] = target: unmethylated mononucleosome (H3K9me0), 147 bp 601 DNA 5'-fluorescein-labeled; experiment: FP
[2] = target: H3K9me1 monomethylated mononucleosome (methyl-lysine analog), 147 bp 601 DNA 5'-fluorescein-labeled (monomethyl-lysine analog (MLA) at K9); experiment: FP
[3] = target: H3K9me2 dimethylated mononucleosome (methyl-lysine analog), 147 bp 601 DNA 5'-fluorescein-labeled (dimethyl-lysine analog (MLA) at K9); experiment: FP
H3K9me0 peptide [4] = target: T1, H3K9me0 peptide (Homo sapiens, unmethylated K9; fluorescein label; H3(1-20) in mature numbering (initiator Met removed)); experiment: FP; lower limit, no saturation
H3K9me0 peptide [5] = target: T1, H3K9me0 peptide; experiment: FP; MBP-tagged full-length G9a; lower limit, no saturation

Row | Binder | Kd [2] [µM] | Kd [3] [µM] | other results
1 | G9aS-GLP (protein) chain 1: AHDAPGRADTSQPSARMRGHGEPRRPPCDPLADTIDSSGPSLTLPNGGCLSAVGLPPGPGREALEKALVIQESERRKKLRFHPRQLYLSVKQGELQKVILMLLDNLDPNFQSDQQSKRTPLHAAAQKGSVEICHVLLQAGANINAVDKQQRTPLMEAVVNNHLEVARYMVQLGGCVYSKEEDGSTCLHHAAKIGNLEMVSLLLSTGQVDVNAQDSGGWTPIIWAAEHKHIDVIRMLLTRGADVTLTDNEENICLHWASFTGSAAIAEVLLNAQCDLHAVNYHGDTPLHIAARESYHDCVLLFLSRGANPELRNKEGDTAWDLTPERSDVWFALQLNRKLRLGVGNRAVRTEKIICRDVARGYENVPIPCVNGVDGEPCPEDYKYISENCETSTMNIDRNITHLQHCTCVDDCSSSNCLCGQLSIRCWYDKDGRLLQEFNKIEPPLIFECNQACSCWRSCKNRVVQSGIKVRLQLYRTAKMGWGVRALQTIPQGTFICEVVGELISDAEADVREDDSYLFDLDNKDGEVYCIDARYYGNISRFINHLCDPNIIPVRVFMLHQDLRFPRIAFFSSRDIRTGEELGFDFGDRFWDIKSKYFTCQCGSEKCKHSAEAIALEQSRLARLDPHPELLPDLSSLPPINT chain 2: PGQEKSLAAEGRADTTTGSIAGAPEDERSQSTAPQAPECFDPAGPAGLVRPTSGLSQGPGKETLESALIALDSEKPKKLRFHPKQLYFSARQGELQKVLLMLVDGIDPNFKMEHQSKRSPLHAAAEAGHVDICHMLVQAGANIDTCSEDQRTPLMEAAENNHLDAVKYLIKAGAQVDPKDAEGSTCLHLAAKKGHYDVVQYLLSNGQMDVNCQDDGGWTPMIWATEYKHVELVKLLLSKGSDINIRDNEENICLHWAAFSGCVDIAEILLAAKCDLHAVNIHGDSPLHIAARENRYDCVVLFLSRDSDVTLKNKEGETPLQCASLSSQVWSALQMSKALRDSAPDKPVAVEKTVSRDIARGYERIPIPCVNAVDSELCPTNYKYVSQNCVTSPMNIDRNITHLQYCVCVDDCSSSTCMCGQLSMRCWYDKDGRLLPEFNMAEPPLIFECNHACSCWRNCRNRVVQNGLRARLQLYRTQDMGWGVRSLQDIPLGTFVCEYVGELISDSEADVREEDSYLFDLDNKDGEVYCIDARFYGNVSRFINHHCEPNLVPVRVFMSHQDLRFPRIAFFSTRLIQAGEQLGFDYGERFWDVKGKLFSCRCGSSKCRHSSAALAQRQASAAQEPQENGLPDTSSAAAADPL |  |  | Kd [1]: > 70 µM
2 | GLP ANK-SET homodimer (complex) QEKSLAAEGRADTTTGSIAGAPEDERSQSTAPQAPECFDPAGPAGLVRPTSGLSQGPGKETLESALIALDSEKPKKLRFHPKQLYFSARQGELQKVLLMLVDGIDPNFKMEHQSKRSPLHAAAEAGHVDICHMLVQAGANIDTCSEDQRTPLMEAAENNHLDAVKYLIKAGAQVDPKDAEGSTCLHLAAKKGHYDVVQYLLSNGQMDVNCQDDGGWTPMIWATEYKHVELVKLLLSKGSDINIRDNEENICLHWAAFSGCVDIAEILLAAKCDLHAVNIHGDSPLHIAARENRYDCVVLFLSRDSDVTLKNKEGETPLQCASLSSQVWSALQMSKALRDSAPDKPVAVEKTVSRDIARGYERIPIPCVNAVDSELCPTNYKYVSQNCVTSPMNIDRNITHLQYCVCVDDCSSSTCMCGQLSMRCWYDKDGRLLPEFNMAEPPLIFECNHACSCWRNCRNRVVQNGLRARLQLYRTQDMGWGVRSLQDIPLGTFVCEYVGELISDSEADVREEDSYLFDLDNKDGEVYCIDARFYGNVSRFINHHCEPNLVPVRVFMSHQDLRFPRIAFFSTRLIQAGEQLGFDYGERFWDVKGKLFSCRCGSSKCRHSSAALAQRQASAAQEPQENGLPDTSSAAAADPL | 5 |  | 
3 | G9a ANK-SET homodimer (complex) DAPGRADTSQPSARMRGHGEPRRPPCDPLADTIDSSGPSLTLPNGGCLSAVGLPPGPGREALEKALVIQESERRKKLRFHPRQLYLSVKQGELQKVILMLLDNLDPNFQSDQQSKRTPLHAAAQKGSVEICHVLLQAGANINAVDKQQRTPLMEAVVNNHLEVARYMVQLGGCVYSKEEDGSTCLHHAAKIGNLEMVSLLLSTGQVDVNAQDSGGWTPIIWAAEHKHIDVIRMLLTRGADVTLTDNEENICLHWASFTGSAAIAEVLLNAQCDLHAVNYHGDTPLHIAARESYHDCVLLFLSRGANPELRNKEGDTAWDLTPERSDVWFALQLNRKLRLGVGNRAVRTEKIICRDVARGYENVPIPCVNGVDGEPCPEDYKYISENCETSTMNIDRNITHLQHCTCVDDCSSSNCLCGQLSIRCWYDKDGRLLQEFNKIEPPLIFECNQACSCWRSCKNRVVQSGIKVRLQLYRTAKMGWGVRALQTIPQGTFICEYVGELISDAEADVREDDSYLFDLDNKDGEVYCIDARYYGNISRFINHLCDPNIIPVRVFMLHQDLRFPRIAFFSSRDIRTGEELGFDYGDRFWDIKSKYFTCQCGSEKCKHSAEAIALEQSRLARLDPHPELLPDLSSLPPINT | 14.8 | 18.4 | Kd (H3K9me0 peptide [4]): > 100 µM
4 | G9a-GLP ANK-SET heterodimer (complex) chain 1: DAPGRADTSQPSARMRGHGEPRRPPCDPLADTIDSSGPSLTLPNGGCLSAVGLPPGPGREALEKALVIQESERRKKLRFHPRQLYLSVKQGELQKVILMLLDNLDPNFQSDQQSKRTPLHAAAQKGSVEICHVLLQAGANINAVDKQQRTPLMEAVVNNHLEVARYMVQLGGCVYSKEEDGSTCLHHAAKIGNLEMVSLLLSTGQVDVNAQDSGGWTPIIWAAEHKHIDVIRMLLTRGADVTLTDNEENICLHWASFTGSAAIAEVLLNAQCDLHAVNYHGDTPLHIAARESYHDCVLLFLSRGANPELRNKEGDTAWDLTPERSDVWFALQLNRKLRLGVGNRAVRTEKIICRDVARGYENVPIPCVNGVDGEPCPEDYKYISENCETSTMNIDRNITHLQHCTCVDDCSSSNCLCGQLSIRCWYDKDGRLLQEFNKIEPPLIFECNQACSCWRSCKNRVVQSGIKVRLQLYRTAKMGWGVRALQTIPQGTFICEYVGELISDAEADVREDDSYLFDLDNKDGEVYCIDARYYGNISRFINHLCDPNIIPVRVFMLHQDLRFPRIAFFSSRDIRTGEELGFDYGDRFWDIKSKYFTCQCGSEKCKHSAEAIALEQSRLARLDPHPELLPDLSSLPPINT chain 2: QEKSLAAEGRADTTTGSIAGAPEDERSQSTAPQAPECFDPAGPAGLVRPTSGLSQGPGKETLESALIALDSEKPKKLRFHPKQLYFSARQGELQKVLLMLVDGIDPNFKMEHQSKRSPLHAAAEAGHVDICHMLVQAGANIDTCSEDQRTPLMEAAENNHLDAVKYLIKAGAQVDPKDAEGSTCLHLAAKKGHYDVVQYLLSNGQMDVNCQDDGGWTPMIWATEYKHVELVKLLLSKGSDINIRDNEENICLHWAAFSGCVDIAEILLAAKCDLHAVNIHGDSPLHIAARENRYDCVVLFLSRDSDVTLKNKEGETPLQCASLSSQVWSALQMSKALRDSAPDKPVAVEKTVSRDIARGYERIPIPCVNAVDSELCPTNYKYVSQNCVTSPMNIDRNITHLQYCVCVDDCSSSTCMCGQLSMRCWYDKDGRLLPEFNMAEPPLIFECNHACSCWRNCRNRVVQNGLRARLQLYRTQDMGWGVRSLQDIPLGTFVCEYVGELISDSEADVREEDSYLFDLDNKDGEVYCIDARFYGNVSRFINHHCEPNLVPVRVFMSHQDLRFPRIAFFSTRLIQAGEQLGFDYGERFWDVKGKLFSCRCGSSKCRHSSAALAQRQASAAQEPQENGLPDTSSAAAADPL | 2.26 | 4.76 | 
5 | full-length G9a (enzyme) MRGLPRGRGLMRARGRGRAAPTGGRGRGRGGAHRGRGRPRSLLSLPRAQASWAPQLPAGLTGPPVPCLPSQGEAPAEMGALLLEKEPRGAAERVHSSLGDTPQSEETLPKANPDSLEPAGPSSPASVTVTVGDEGADTPVGAASLIGDEPESLEGDGGRIVLGHATKSFPSSPSKGGACPSRAKMSMTGAGKSPPSVQSLAMRLLSMPGAQGAATAGPEPSPATTAAQEGQPKVHRARKTMSKPSNGQPPIPEKRPPEVQHFRMSDDMHLGKVTSDVAKRRKLNSGSLSEDLGSAGGSGDIILEKGEPRPLEEWETVVGDDFSLYYDAYSVDERVDSDSKSEVEALAEQLSEEEEEEEEEEEEEEEEEEEEEEEEEDEESGNQSDRSGSSGRRKAKKKWRKDSPWVKPSRKRRKREPPRAKEPRGVNGVGSSGPSEYMEVPLGSLELPSEGTLSPNHAGVSNDTSSLETERGFEELPLCSCRMEAPKIDRISERAGHKCMATESVDGELLGCNAAILKRETMRPSSRVALMVLCEAHRARMVKHHCCPGCGYFCTAGTFLECHPDFRVAHRFHKACVSQLNGMVFCPHCGEDASEAQEVTIPRGDGGTPPIGTAAPALPPLAHDAPGRADTSQPSARMRGHGEPRRPPCDPLADTIDSSGPSLTLPNGGCLSAVGLPPGPGREALEKALVIQESERRKKLRFHPRQLYLSVKQGELQKVILMLLDNLDPNFQSDQQSKRTPLHAAAQKGSVEICHVLLQAGANINAVDKQQRTPLMEAVVNNHLEVARYMVQLGGCVYSKEEDGSTCLHHAAKIGNLEMVSLLLSTGQVDVNAQDSGGWTPIIWAAEHKHIDVIRMLLTRGADVTLTDNEENICLHWASFTGSAAIAEVLLNAQCDLHAVNYHGDTPLHIAARESYHDCVLLFLSRGANPELRNKEGDTAWDLTPERSDVWFALQLNRKLRLGVGNRAVRTEKIICRDVARGYENVPIPCVNGVDGEPCPEDYKYISENCETSTMNIDRNITHLQHCTCVDDCSSSNCLCGQLSIRCWYDKDGRLLQEFNKIEPPLIFECNQACSCWRSCKNRVVQSGIKVRLQLYRTAKMGWGVRALQTIPQGTFICEYVGELISDAEADVREDDSYLFDLDNKDGEVYCIDARYYGNISRFINHLCDPNIIPVRVFMLHQDLRFPRIAFFSSRDIRTGEELGFDYGDRFWDIKSKYFTCQCGSEKCKHSAEAIALEQSRLARLDPHPELLPDLSSLPPINT |  |  | Kd (H3K9me0 peptide [5]): > 66 µM
